No end group written: not given here. *: point of attachment. FITC = O=C1OC2(c3ccc(O)cc3Oc3cc(O)ccc32)c2ccc(NC(=S)*)cc21
Target: T1, avidin (UniProt P02701 25-152)
T1 construct: also called avidin of a bar code 01
Experiment: FITC-peptide incubated with protein-coated bar-coded carriers; fluorescence read in flow tube
Procedure: Carriers of 15 mm in length having a bar code 01 or 02 were prepared by using polymethylmethacrylate fibers as a raw material and introducing carboxyl groups on the surface thereof in the same manner as in Example 1. As in Example 1, 50 carriers having a bar code 01 were dispersed in 10 ml HEPES buffer, 100 μmol hydroxysuccinimide was added thereto, followed by the addition of 100 μmol WSC to succinimidate carboxyl groups, and after washing the carriers with the same buffer, 10 ml of a buffer containing 1 μmol/ml avidin was immediately added thereto to immobilize avidin on the carriers. The carriers were subjected to blocking in 1% BSA solution, and washed with distilled water to prepare carriers to which avidin is bound and which have a bar code 01.
Similarly, a FITC-labeled polypeptide having the […] shown in SEQ ID NO: 7 which consists of 15 amino acids without containing avidin-binding peptide sequence and having FITC at the amino-terminus was synthesized and dissolved in PBS containing 0.1% BSA at a concentration of 2 nmol/ml to prepare a test sample solution.
An apparatus shown in FIGS. 1 and 2 was prepared, and the bar code and fluorescence were detected while passing the solutions prepared in (3) above through a hollow tube in the detection device. As the bar code reader, a hand laser scanner SL-114 (product of Nichiei Intec) was used. […]

T1 sequence (P02701 25-152 limits assumed): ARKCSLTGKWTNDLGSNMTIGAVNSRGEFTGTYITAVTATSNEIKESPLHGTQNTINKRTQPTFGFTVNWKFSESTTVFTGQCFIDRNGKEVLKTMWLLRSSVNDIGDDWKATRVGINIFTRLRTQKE

binding result: no binding
B1: FITC-labeled polypeptide of SEQ ID NO: 7 (15 amino acids without avidin-binding peptide sequence) (peptide)
peptide: {FITC}-ISFENTWLWTSPFSS

Source: US20050112564A1 (published 2005)
